# The nanobody polyreactivity screen of Harvey et al. (2022)
# Test: yeast display, Sf9 membrane polyspecificity reagent, FACS + sequencing; frameworks hold sequencing errors
# Outline: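 Nanobodies came from a synthetic yeast display library in Saccharomyces cerevisiae BJ5465, induced with galactose for 36–48 hours and stained for 1 hour at 4 °C with 10% biotinylated, detergent-solubilized Sf9 membrane reagent. Cells were enriched on streptavidin microbeads and then FACS-sorted, with low and high (top ~1%) gates set on anti-HA fluorescence for expression and streptavidin fluorescence for reagent binding. Each polyreactivity label reflects the gate a clone came from. Genes were amplified by colony PCR, sequenced by MiSeq 2 × 250 and filtered by CDR length.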
row,Sequence,polyreactivity (PSR sort gate)
1,QVQLVESGGGLVQAGGSLRLSCAASGFIFRPNAMGWYRQAPGKERELVAAITRDGDRTYYADSVKGRFTISRDNAKNTVYLQMNSLKPEETAVYYCAADVIQWWTRYYTWEYDYWGQGTQVTVSS,low polyreactivity
2,QVQLVESGGGLVQAGGSLRLSCAASGFIFRPYAMGSYRQAPGKERELVAAISYGDGITYYADSVKGRFTISRDNAKNTVYLQMNSLKPEDTAVYYCAAEYVSHFSGYRYDYWGQGTQVTVSS,low polyreactivity
3,QVQLVESGGGLVQAGGSLRLSCAASGFIFRPYTMGWYRQAPGKERELVAAITYSGGSSTYYADSVKGRFTISRDNAKNTVYLQMNSLKPEDTAVSYCATTPDYGHDYWGQGTQVTVSS,low polyreactivity
4,QVQLVESGGGLVQAGGSLRLSCAASGFIFRPYVMGWYRQAPGTERELVAAISRSGSSTYYADSVKGRFTISRDNAKNTVYLQMNSLKPEDTAVYYCARRTSQEFDYWGQGTQVTVSS,high polyreactivity
5,QVQLVESGGGLVQAGGSLRLSCAASGFIFRQDAMGWYRQAPGKERELVAAISWRGGSTYYADSVKGRFTISRDNAKNTEYLQMNSLKPEDTAVYYCATRQTKYSNYRGDYWGQGTQVTVST,high polyreactivity
6,QVQLVESGGGLVQAGGSLRLSCAASGFIFRQYAMGWYRQAPGKERELVAAISWSGGSTYYADSVKGRFTISRDNAKNTVYLQMNSLKPEDTAVYYCNVLTPPTDYDYWGQGTQVTVSS,high polyreactivity
7,QVQLVESGGGLVQAGGSLRLSCAASGFIFRRNAMGWYRQAPGKERELVAAISRSGGRTYYADSVKGRFTISRDNAKNTVYLQMNSLKPEDTAVYYCAAEYTDKYEYWGQGTQVTVSS,high polyreactivity
8,QVQLVESGGGLVQAGGSLRLSCAASGFIFRRYAMGWYRQAPGKERDLVAAIRSDRSTNYADSVKGRFTISLDNAKNTVYLQMNSLKPEDTAVYYCARPYRSHYGWGVRGFDYWGQGTQVTVSS,high polyreactivity
9,QVQLVESGGGLVQAGGSLRLSCAASGFIFRRYAMGWYRQAPGKERELVAAISWRSGSTYYADSVKGRFTISRDNAKNTVYLQMNSLKPEDTAVYYCAAKDQATYQLNYWGQGTQVTVSS,high polyreactivity
10,QVQLVESGGGLVQAGGSLRLSCAASGFIFRSYAMGWYRPAPGKERELVAAITKSGGRTYYADSVKGRFTISRDNAKNTVYLQMNSLKPEDTAVYYCAADQTSYSTSRRYDYWGQGTQVTVSS,high polyreactivity
11,QVQLVESGGGLVQAGGSLRLSCAASGFIFRSYAMGWYRQAPGKERELVAAITSGGRTFYADSVKGRFTISRDNAKNTVYLQMNSLKPEDTAVYYCAAGGYRTGFNYWGQGTQVTVSS,high polyreactivity
12,QVQLVESGGGLVQAGGSLRLSCAASGFIFRTYAMGWYRQAPGKEREFVAAISSGSSTYYADSEKGRFTISRDNANNSVYLQMISLKPEDTAVYYCAARVPQQSRTWRGSTRSYRYGYWGQGTQVTVSS,high polyreactivity
13,QVQLVESGGGLVQAGGSLRLSCAASGFIFRTYAMGWYRQAPGTERELVATITGDGSTNYADSVKGRFTISRDNAKNTVYLQMNSLKPEDTAVYYCSRDDRLAGDYWGQGTQVTVSS,low polyreactivity
14,QVQLVESGGGLVQAGGSLRLSCAASGFIFRVNAMGWYRQAPGKEREFVAAITYSGGRTSYADSVKGRFTISRDNAKNTVYLQMNSLKPEDTAVYYCAALLYKPSVHAKYYYWGQGTQVTVSS,high polyreactivity
15,QVQLVESGGGLVQAGGSLRLSCAASGFIFRYAMGWYRQAPGKERELVAAISSSGGSTNYADSVKGRFTISRDNAKNTVYLQMNSLKPEDTAVYYCAARDGRQPRGYRLVTYYAPMYYWGQGTQVTVSS,high polyreactivity
16,QVQLVESGGGLVQAGGSLRLSCAASGFIFRYNAMAWYRQAPGKERELVAAIDSGGSTYYADSVKGRFTISRDNAKNTVYLQMNSMKPEDNAVYYCNAVVEASYPCVDYWGQGTQVTVSS,low polyreactivity
17,QVQLVESGGGLVQAGGSLRLSCAASGFIFRYYAMGRYRQAPGKERELVAAISYSGGSTYYADSVKGRFTFSRDNAKNTVYLQINSMKPEDTAVYYCAKYTTSVYKQSLQQGYDYWGQGTQVSVSS,high polyreactivity
18,QVQLVESGGGLVQAGGSLRLSCAASGFIFRYYAMGWYRQAPGKEREFVAAISRSGSSTYYADSVKGRFTISRDNAKNTVYLQMNSLKPEDTAVYYCNARKYRKGYGYWGQGTQVTVSS,high polyreactivity
19,QVQLVESGGGLVQAGGSLRLSCAASGFIFRYYAMGWYRQAPGKERELVAAISGNGGNTYYADSVKGRFTISRDNAKNTVYLQMNSLKPEDTAVYNCNRAPGYRGGRYDYWGQGTQVTVSS,high polyreactivity
20,QVQLVESGGGLVQAGGSLRLSCAASGFIFRYYAMGWYRQAPGKERELVAAISGSGGGTYYADSVKGRFTISRDNAKNTVYLQMNSLKPEDTAVYYCAAGSTSGYFRYYYWGQGSQVTVSS,high polyreactivity
21,QVQLVESGGGLVQAGGSLRLSCAASGFIFRYYAMGWYRQAPGKERELVAAISRSGGSTYYADSVKGRFTISRDNAKNTVYLQMNSLKPEDTAVYYCNKDPRGRIPVPGTWIMDYWGQGTQVTVSS,high polyreactivity
22,QVQLVESGGGLVQAGGSLRLSCAASGFIFRYYAMGWYRQAPGKERELVAAISSSGGCTYYADSVKGRFTISRDNSKNTVYLLMNRMKPEDTAVYFCAARDLRKLFSLYPYYYWGQGTHVTVSS,high polyreactivity

row,Sequence,polyreactivity (PSR sort gate)
1,QVQLVESGGGLVQAGGSLRLSCAASGFIFRYYAMGWYRQAPGKERELVAAISWSGGSTYYADSVKGRFTISRDNAKNTVYLQMNSLKPEDTAVYYCNAVTTYGEYDYWGQGTQVTVSS,high polyreactivity
2,QVQLVESGGGLVQAGGSLRLSCAASGFIFRYYAMGWYRQAPGKERELVAAISYSGGYTYYADSVKGRFTISRDNAKNTVYLQMNSLKPEDTAVYYCAAVLRTRDHPQPNYEYWGQGTQVTVSS,high polyreactivity
3,QVQLVESGGGLVQAGGSLRLSCAASGFIFRYYAMGWYRQAPGKERELVAAITNSGVSTYYADSVKGRFTISRDNAKNTVYLQMNSLKPEDTAVYYCAATYRTRTSQYDYWGQGTQVTVSS,high polyreactivity
4,QVQLVESGGGLVQAGGSLRLSCAASGFIFRYYAMGWYRQAPGKERELVATISSGGGTHYADSVKGRFTISRDNAKNTVYLQMNCLKPEDTAVYYCNKVSYRRRSVLLHYDYWGQGTQVTVSS,high polyreactivity
5,QVQLVESGGGLVQAGGSLRLSCAASGFIFRYYAMGWYRQAPWKERELVASITRSGGRTYYADSVKGRFTISRDNAKNTVYLQMNSLKPEDTAVYYCAARHYRSEYEYDYWGQGTQVTVSS,high polyreactivity
6,QVQLVESGGGLVQAGGSLRLSCAASGFIFRYYARGWYRQGPGKERELVAAIDESGGSTYYADSVKGSFTISRDNSKKTVYLQMNSLKAVDTEVYYCAAYSNFYLNYGYGYWGQVTQVTVSS,high polyreactivity
7,QVQLVESGGGLVQAGGSLRLSCAASGFIFRYYTMGWYRQAPGKERELVATITSGGSTYYADSVKGRFTISRDNAKNTVYVQMNSLKPEDTAVYYCAKVRDVLWRFNYWGQGTQVTVSS,high polyreactivity
8,QVQLVESGGGLVQAGGSLRLSCAASGFIFSANAMGWYRQAPGKERELVAVISWNGDGTYYADSVKGRFTISRDNAKNTVYLQMNSLKAEDTAVYYCAALSYAYRSQSRRYGYRFDYWGQGTQVTVSS,high polyreactivity
9,QVQLVESGGGLVQAGGSLRLSCAASGFIFSAYVMGWYRQAPGKERELVAAISQSGARTYYADSVKGRFTISRDNAKNTVYLQMNSLKPEDTAVYYCAADRRDFRTYDYWGQGTQVTVSS,high polyreactivity
10,QVQLVESGGGLVQAGGSLRLSCAASGFIFSCYAMGWYRQAPGKERELFAAISSSGVSTYYADSVKGRFTISRDNAKNTVYLHMNSLKPEDTAVNYCNAYGSVWDRGEYDYEYWGQGTQVTVSS,low polyreactivity
11,QVQLVESGGGLVQAGGSLRLSCAASGFIFSDNAMGWYRQAPGKERELVSAITDDGDTTYYADSVKGRFTISRDNAKNTVYLQMNSLKPEDTAVYYCATEIEDDESSGPYYYVGYGYWGQGTQVTVSS,high polyreactivity
12,QVQLVESGGGLVQAGGSLRLSCAASGFIFSGNAMGWYRQAPGKERELVATITTGGTTKYADSVKGRFTISRDNAKNTVYLQMNSLKPEDTAVYYFAKSWSYWYQYYYWGQGTQVTVSS,low polyreactivity
13,QVQLVESGGGLVQAGGSLRLSCAASGFIFSGYAMGWSRQAPGKERELVAAITWSGSNTFYADSVKGRFTISRDNAKNTVYLQMNSLKPEDTAVYYCNAVSKYKRSDYYYWGQGTQVTVSS,high polyreactivity
14,QVQLVESGGGLVQAGGSLRLSCAASGFIFSGYAMGWYRQAPGKEREFVAAISWSGSSTYYADSVKGRFTISRDNAKNTVYLQMNSLKPEDTALYYCNAVRQHPPRYSRYDYWGQGTQVTVSS,high polyreactivity
15,QVQLVESGGGLVQAGGSLRLSCAASGFIFSGYAMGWYRQAPGKERELVATISGSGGSTYYADSVKGRFTISRDNAKNTVYLQMNSLKPEDTAVYYCAARQRGGYGYWGQGTQVTVSS,high polyreactivity
16,QVQLVESGGGLVQAGGSLRLSCAASGFIFSGYAMGWYRQAPGKERELVATISGSGGSTYYADSVKGRFTISRDNAKNTVYLQMNSLKPEDTAVYYCAKRSIVGYRYSGYDYWGQGTQVTVSS,high polyreactivity
17,QVQLVESGGGLVQAGGSLRLSCAASGFIFSGYAMGWYRQAPGKEWELVAAISRRGGSTYYADSVKGRFTISRDNAKNTVYLQMNSLKPEDTAVYYCARTTRGSYGKFYYWGQGTQVTVSS,high polyreactivity
18,QVQLVESGGGLVQAGGSLRLSCAASGFIFSHYTMGWYRQAPGKERELVAGISWSGGNTYYADSVKGRFTISRDNAKNTVYLQMISLKPEDTAVYYCNADWIGVPLAYDYWGQGTQVTVSS,low polyreactivity
19,QVQLVESGGGLVQAGGSLRLSCAASGFIFSINAMGWYRQAPGKERELVADIDTGGSTNYADSVKGRFTISRDNAKNTVYLQMNSLKPEDTAVYYCAAQWYQYPSYISYFTSYDYWGQGTQVTVSS,low polyreactivity
20,QVQLVESGGGLVQAGGSLRLSCAASGFIFSIYTMGWYRQAPGKERELVAAISWSGGSTYYADSVKGRFTISRDNAKNTVYLQMNSLKPEDTAVYYCNRVQFSPVYRFREYDYWGQGSQVTVSS,high polyreactivity
21,QVQLVESGGGLVQAGGSLRLSCAASGFIFSKNVMGWYRQAPGKERELVARITRSGGTTYYADSVKGRFTISRDNAKNTVYLQMNSLKPEDTAVYYCAARRYGSTSISWYDYWGQGTQVTVSS,high polyreactivity
